Assay results as given in IntAct's records for PubMed 24255178.

B1: Serine/threonine-protein kinase 3 (Homo sapiens), Q13188 (parent)
chain: MEQPPAPKSKLKKLSEDSLTKQPEEVFDVLEKLGEGSYGSVFKAIHKESGQVVAIKQVPVESDLQEIIKEISIMQQCDSPYVVKYYGSYFKNTDLWIVMEYCGAGSVSDIIRLRNKTLIEDEIATILKSTLKGLEYLHFMRKIHRDIKAGNILLNTEGHAKLADFGVAGQLTDTMAKRNTVIGTPFWMAPEVIQEIGYNCVADIWSLGITSIEMAEGKPPYADIHPMRAIFMIPTNPPPTFRKPELWSDDFTDFVKKCLVKNPEQRATATQLLQHPFIKNAKPVSILRDLITEAMEIKAKRHEEQQRELEEEEENSDEDELDSHTMVKTSVESVGTMRATSTMSEGAQTMIEHNSTMLESDLGTMVINSEDEEEEDGTMKRNATSPQVQRPSFMDYFDKQDFKNKSHENCNQNMHEPFPMSKNVFPDNWKVPQDGDFDFLKNLSLEELQMRLKALDPMMEREIEELRQRYTAKRQPILDAMDAKKRRQQNF
partner: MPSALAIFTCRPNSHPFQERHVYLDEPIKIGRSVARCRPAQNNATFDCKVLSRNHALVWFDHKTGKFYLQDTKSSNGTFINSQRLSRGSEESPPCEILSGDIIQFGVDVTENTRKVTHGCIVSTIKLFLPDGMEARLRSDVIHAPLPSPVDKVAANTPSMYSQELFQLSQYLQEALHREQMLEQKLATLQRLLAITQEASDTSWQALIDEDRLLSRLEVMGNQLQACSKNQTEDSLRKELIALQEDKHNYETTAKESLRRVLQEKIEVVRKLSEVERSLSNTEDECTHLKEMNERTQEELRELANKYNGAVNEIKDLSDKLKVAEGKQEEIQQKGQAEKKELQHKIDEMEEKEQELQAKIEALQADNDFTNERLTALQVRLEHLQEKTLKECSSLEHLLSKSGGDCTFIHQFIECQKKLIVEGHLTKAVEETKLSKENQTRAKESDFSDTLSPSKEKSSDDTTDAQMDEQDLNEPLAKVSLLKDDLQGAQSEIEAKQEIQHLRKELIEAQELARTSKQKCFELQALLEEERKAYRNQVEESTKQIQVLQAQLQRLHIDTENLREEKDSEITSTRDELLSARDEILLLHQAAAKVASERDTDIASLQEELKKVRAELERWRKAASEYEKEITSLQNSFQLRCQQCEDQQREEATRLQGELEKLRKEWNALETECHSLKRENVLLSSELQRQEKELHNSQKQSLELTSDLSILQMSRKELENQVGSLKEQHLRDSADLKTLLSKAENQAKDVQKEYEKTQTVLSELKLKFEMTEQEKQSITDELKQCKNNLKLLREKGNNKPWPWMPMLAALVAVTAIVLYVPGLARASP
B2: Sarcolemmal membrane-associated protein (Homo sapiens), Q14BN4 (parent)
chain: B1 partner
partner: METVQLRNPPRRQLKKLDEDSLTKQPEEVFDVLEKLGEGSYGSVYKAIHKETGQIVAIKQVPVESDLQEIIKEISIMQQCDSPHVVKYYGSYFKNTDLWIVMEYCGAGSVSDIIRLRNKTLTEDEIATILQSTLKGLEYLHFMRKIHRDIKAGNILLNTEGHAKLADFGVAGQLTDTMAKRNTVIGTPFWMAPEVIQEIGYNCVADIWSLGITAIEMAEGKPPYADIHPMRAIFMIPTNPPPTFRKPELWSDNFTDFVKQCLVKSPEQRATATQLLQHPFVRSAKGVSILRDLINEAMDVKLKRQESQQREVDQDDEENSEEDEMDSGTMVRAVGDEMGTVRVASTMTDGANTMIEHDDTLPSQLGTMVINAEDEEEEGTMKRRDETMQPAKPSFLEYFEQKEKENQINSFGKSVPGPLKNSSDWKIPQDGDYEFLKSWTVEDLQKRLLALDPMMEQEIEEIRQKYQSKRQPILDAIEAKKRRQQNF
B3: Sarcolemmal membrane-associated protein (Homo sapiens), Q14BN4 (parent)
chain: B1 partner
partner: B1 chain

Variants of: B1
Settings: with slmap_human SLMAP, Q14BN4

Variant	effect of a mutation on the interaction
MEQPPAPKSKLKKLSEDSLTKQPEEVFDVLEKLGEGSYGSVFKAIHKESGQVVAIKQVPVESDLQEIIKEISIMQQCDSPYVVKYYGSYFKNTDLWIVMEYCGAGSVSDIIRLRNKTLIEDEIATILKSTLKGLEYLHFMRKIHRDIKAGNILLNTEGHAKLADFGVAGQLTDTMAKRNAVIGTPFWMAPEVIQEIGYNCVADIWSLGITSIEMAEGKPPYADIHPMRAIFMIPTNPPPTFRKPELWSDDFTDFVKKCLVKNPEQRATATQLLQHPFIKNAKPVSILRDLITEAMEIKAKRHEEQQRELEEEEENSDEDELDSHTMVKTSVESVGTMRATSTMSEGAQTMIEHNSTMLESDLGTMVINSEDEEEEDGTMKRNATSPQVQRPSFMDYFDKQDFKNKSHENCNQNMHEPFPMSKNVFPDNWKVPQDGDFDFLKNLSLEELQMRLKALDPMMEREIEELRQRYTAKRQPILDAMDAKKRRQQNF [T180A]	decreasing interaction

Variants of: B2
Settings: with stk4_human STK4, Q13043

Variant	effect of a mutation on the interaction
R32A	decreasing interaction
H55A	decreasing interaction

Variants of: B3
Settings: with stk3_human STK3, Q13188

Variant	effect of a mutation on the interaction
H55A	decreasing interaction
R32A	decreasing interaction
